Source: publication doi:10.1101/2022.09.11.507496

Biological target: VSV:H2-K^b (mouse | not stated) (UniProt P03521)
Assay: micropipette adhesion frequency

Sequence of UniProt P03521 (P03521 whole entry, looked up): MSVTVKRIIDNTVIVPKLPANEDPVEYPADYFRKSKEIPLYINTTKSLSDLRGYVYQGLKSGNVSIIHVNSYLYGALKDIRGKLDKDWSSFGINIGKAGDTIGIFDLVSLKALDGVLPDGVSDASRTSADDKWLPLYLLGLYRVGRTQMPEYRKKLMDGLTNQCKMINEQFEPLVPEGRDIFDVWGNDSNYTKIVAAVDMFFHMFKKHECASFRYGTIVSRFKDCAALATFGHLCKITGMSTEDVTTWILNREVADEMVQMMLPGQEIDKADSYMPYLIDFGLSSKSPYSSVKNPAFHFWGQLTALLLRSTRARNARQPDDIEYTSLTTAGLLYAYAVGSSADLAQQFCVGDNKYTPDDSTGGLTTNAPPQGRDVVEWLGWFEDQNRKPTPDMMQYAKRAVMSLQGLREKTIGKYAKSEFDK

“CD8 on CD8+ T cells of OT-I mice (from UniProt P01731;P10300) (receptor)” was tested, and the fold smaller 2D affinity than TCR–pMHC was 500 fold.
